Patent publication KR20240052776A (dated 2024)

Tests used:
Assay in all cases: flow cytometry, cell-based binding assay: yeast-displayed scFv with biotinylated MOG protein, streptavidin detection, anti-myc co-staining
[1] = target: T1, biotinylated human MOG-His (Uniprot Q16653), RND Systems (human, UniProt Q16653 30-154, biotinylated (site not stated))
T1 construct: A bought protein (RND Systems); also called 인간 MOG-His; not shown: His tag
T1 sequence (looked up): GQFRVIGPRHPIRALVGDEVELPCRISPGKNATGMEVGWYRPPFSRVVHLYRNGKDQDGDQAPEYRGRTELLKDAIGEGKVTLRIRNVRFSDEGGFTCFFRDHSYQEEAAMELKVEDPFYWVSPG

[2] = target: T2, biotinylated mouse MOG-His (Uniprot Q61885), RND Systems (mouse, UniProt Q61885 29-156, limits assumed, biotinylated (site not stated))
T2 construct: A bought protein (RND Systems); also called 마우스 MOG-His; not shown: His tag
T2 sequence (looked up): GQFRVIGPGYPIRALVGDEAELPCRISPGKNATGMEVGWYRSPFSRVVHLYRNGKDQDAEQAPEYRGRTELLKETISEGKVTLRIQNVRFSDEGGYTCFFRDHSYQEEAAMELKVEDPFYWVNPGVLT

[3] = target: T3, biotinylated cynomolgus monkey MOG-FC protein (Q9BGS7), expressed in mammalian cells (cynomolgus monkey, UniProt Q9BGS7 30-154, limits assumed, biotinylated (site not stated))
T3 construct: also called cynomolgus MOG-Fc; 사이노몰거스 원숭이 MOG-FC; not shown: Fc part
T3 sequence (looked up): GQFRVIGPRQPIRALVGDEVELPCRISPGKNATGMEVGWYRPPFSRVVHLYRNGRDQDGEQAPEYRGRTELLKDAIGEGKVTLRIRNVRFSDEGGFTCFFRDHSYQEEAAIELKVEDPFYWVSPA

Measured: binding result

B1: anti-MOG scFv of the invention, displayed on yeast cells (MOG-CAR 발현 효모 세포) (scFv, V domains shown)
VH: QVQLVQSGAEVKKPGSSVKVSCKASGGTFSSYAFSWVRQAPGQGLEWMGRIVPVVGTPNYAQKFQGRVTITADESTSTAYMELSSLRSEDTAVYYCARERLYAGYYFDHWGQGTLVTVSS
VL: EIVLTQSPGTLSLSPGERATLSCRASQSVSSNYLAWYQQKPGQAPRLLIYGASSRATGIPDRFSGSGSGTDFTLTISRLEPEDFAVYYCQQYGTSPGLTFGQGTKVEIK
notes: also called MOG-CAR expressing yeast cells
binds: all assays above
